In patent US20090291088A1, “THERAPEUTIC COMBINATIONS OF ANTI-IGF-1R ANTIBODIES AND OTHER COMPOUNDS” (Biogen Idec MA Inc., priority 2008, published 2009):

B1: P1G10.2B8: murine anti-human IGF-1R monoclonal antibody from hybridoma; VH SEQ ID NO:58, VL SEQ ID NO:113 (antibody, V domains shown)
VH: QIQLVQSGPDLKKPGETVKISCKASGYTFTNHGMNWVKQAPGKDLKWMGWINTNTGEPTYADDFKGRFAFSLETSASTAYLQINNLKNEDTATYFCASPLYYRNGRYFDVWGAGTTVTVSS
VL: DIQMTQTTSSLSASLGDRVTISCRASQDISNYLNWYQQKPDGSVKLLIYYTSRLHSGVPSRFSGSGSGTDYSLTISNLEQEDIATYFCQQGKTLPWTFGGGTKLEIK
modifications: Antibody variable heavy chain sequence; Antibody variable light chain sequence
B2: M14-C03_Fab (antibody, V domains shown)
VH: EVQLLESGGGLVQPGGSLRLSCAASGFTFSKYMMSWVRQAPGKGLEWVSYISPSGGLTWYADSVKGRFTISRDNSKNTLYLQMNSLRAEDTAVYYCARDGARGYGMDVWGQGTTVTVSS
VL: DIQMTQSPATLSLSPGERATLSCRASQSVSSYLAWYQQKPGQAPRLLIYDASNRATGIPARFSGSGSGTDFTLTISSLEPEDFAVYYCQQRSNWPPEVTFGPGTKVDIK

Legend:
Calu-6 = assay: IGF driven tumor cell growth, CELL TITER-GLO, Calu-6; assay type: cell-based, human; conditions: lung cancer cells
Method: (§1) NCI-H23, Calu-6, Colo-205, Panc-1, BxPC-3 (ATCC) tumor lines were purchased from ATCC. Cell lines were grown in complete growth medium containing RPMI-1640 (ATCC), 10% fetal bovine serum (Irvine Scientific Inc.) and 50 μg/ml of Gentamycin (Gibco, Invitrogen). Trypsin-EDTA solution (Sigma) was used for removal of adherent cells from culture vessels. Phosphate buffered saline, pH 7.2, was from MediaTech Inc The 96-well clear bottom plates for luminescent assay was purchased from Wallac Inc.
(§2) Cells grown to 80% monolayers were, trypsinized, washed, resuspended and plated into 96-well plates in 200 μl of 2% growth medium at 8×10^3 cells/well for NCI-H23 and Colo-205 cells; and 5×10^3 cells/well for Calu-6, Panc-1 and BxPC-3 cells. After 24 hours, the culture medium was replaced with 100 μl of serum free medium (SFM), and 50 μl of serially diluted antibodies at 4× concentration was added. […] All treatments were done in triplicates. Cell growth was measured using the CELL TITER-GLO™ Luminescent Cell Viability Assay (Promega, Madison, Wis.). The 1:1 mixture of reagent and SFM was added at 200 μl/well. Luminescence was detected on Wallac (Boston, Mass.) plate reader.
(§3) The ability of the selected murine antibodies to inhibit IGF/IGF-1R dependent in vitro growth of several human tumor lines (Lung, H-23, Calu-6; Pancreas, BxPc-3, Panc-1, MiaPaCa and Colon Colo205) was measured by a proliferation assay described in Example 13.

Colo-205 = assay: IGF driven tumor cell growth, CELL TITER-GLO, Colo-205; assay type: cell-based, human; conditions: colon cancer cell
Method: as §1, §2, §3

NCI-H23 = assay: IGF driven tumor cell growth, CELL TITER-GLO, H-23; assay type: cell-based, human; conditions: lung cancer cells
Method: as §1, §2, §3
A commercially available anti-IGF-1R antibody (IR3) was used as a positive control. The mouse IgG (anti-IDectin, IgG1) and human gamma 4 version of IDEC-152 antibody of irrelevant specificity were used as isotype matched controls for the experiments. […]

Panc-1 = assay: IGF driven tumor cell growth, CELL TITER-GLO, Panc-1; assay type: cell-based, human; conditions: pancreatic cancer cell
Method: as §1, §2, §3

IGF-1R phosphorylation = target: T1, IGF-1R phosphorylation (Homo sapiens, UniProt P08069); assay: Inhibition of IGF-1 and IGF-2 mediated IGF-1R phosphorylation in MCF-7 cells (ELISA); assay type: cell-based; conditions: murine monoclonal antibodies
T1 construct: wild type IGF-1R expressed on MCF-7 tumor cells; endogenous in cells; host or cells: MCF-7
Method: Cell lines: IGF1R expressing human breast carcinoma cell line MCF-7 (NCI) were maintained at 37° C. and 5% CO2 in MEM eagle (ATCC) containing 10% FBS, 1× non-essential amino acids, 2 mM L-glutamine, 1 mM sodium pyruvate and 1000 U/ml penicillin and streptomycin. Cells were sub-cultured twice weekly for maintenance and assay, and used with a maximum of 12 passages.
MCF-7 cells were plated in 2 ml growth media at 2×10^5 to 4.0×10^5 cells/well in Ploy-D-Lysine coated 12 well plates (BD Biosciences, #35-6470) and cultured at 37° C., 5% CO2. At 48 hours, media removed and cells serum starved overnight at 37° C., 5% CO2 Serum free media was removed and control or test antibodies at indicated concentration were added in 350 ul of fresh serum free media and incubated for 1 hour at room temperature, or alternately at 37° C. Fabs were tested at 200 nM, 20 nM and 2 nM concentration and the mAbs were tested at 67, 6.7 and 0.67 nM. The commercial anti-IGF-1R control antibody used was αIR3 (EMD biosciences, Oncogene Research products, #D27249). […] Ligand was incubated at […] for 37° C. antibody experiments. Cells were lysed in 1× cell lysis buffer (Cell Signal Technologies, #9803) with 1 mM PMSF for 1 hour at room temperature.
Cell lysates were added to ELISA plates pre-coated with IGF-1Rp antibody (Clone 1-2, Biosource International, #AHR0361) and incubated for 2 hours. Following which plates were washed and the plate bound phosphorylated receptor was detected with the biotin labeled anti-phosphotyrosine antibody 4G10 (Catalog #16-103, Upstate Cell Signaling Solutions (Lake Placid, N.Y. (now part of Millipore, Concord, Mass. (USA)) and streptavidin-HRP (BD Pharmingen, #554066). Assay is developed by addition of TMB substrate (Kierkegaard & Perry, #50-76-00) and color stopped by addition of […] (LabChem, Cat#LC25830-1). Optical density is measured at 450 nm using a Molecular Devices plate reader and percent inhibition over the ligand control is calculated for each antibody-ligand sample.
The effect of human anti-IGF-1R antibodies on IGF-1R signaling was evaluated using MCF-7 cells (human breast adenocarcinoma cells).

MCF-7 = assay: Ki67 inhibition in MCF-7 cells; assay type: cell-based, human; conditions: breast cancer cell
IGF-1R = target: T2, IGF-1R (Homo sapiens, UniProt P08069); assay: Ligand blocking assay (RIA): 125I-IGF-1 / 125I-IGF-2 binding to immobilized IGF-1R; conditions: murine monoclonal antibodies
T2 construct: human IGF-1R(1-903)-Fc (denoted hIGF-1R-Fc, generated by Biogen Idec)
Source text: Ligand blocking assay (RIA). […] Insulin (Arg-Insulin, Cat #01-207) was purchased from Upstate Cell Signaling Solutions (Lake Placid, N.Y. (now part of Millipore, Concord, Mass. (USA)). ^125I-rhIGF-1 (Cat # IM172), ^125I-rhIGF-2 (Cat# IM238) and ^125I-rhInsulin (Cat# IM166) were purchased from Amersham Biosciences (Piscataway, N.J.). AffiPure goat anti-human IgG, Fcγ fragment specific antibodies (Cat #109-005-098, Jackson ImmunoResearch, West Grove, Pa.) was used for IGF-1R-Fc capture. As detection antibody, goat anti-mouse IgG HRP (Cat #1030-05, Southern Biotech Birmingham, Ala.) was used.
Human insulin receptor α-subunit specific antibodies, Clone 83-14, (Cat #AHR0221, Biosource International, Inc., Camarillo, Calif.) and the 47-9 (Cat #E55502M, Biodesign International, Saco, M E) were used as positive controls blocking of insulin-insulin receptor binding experiments. Recombinant IGF-1R-Fc fusion protein was produced at Biogen Idec (Cambridge, Mass.).
As isotype matched mouse negative control antibodies, 2B8 (murine α-CD20.1gG,) and 2B8 mkm.G2a (murine α-CD20 MAb, IgG2a, Biogen Idec, Lot #NB3304-87, San Diego, Calif.) were used. The negative control for Fabs was R001-1B provided by Christilyn Graff (Biogen Idec, Cambridge, Mass.). PBS used in buffers was from BioWhittaker (Cat. # 17-513F, Walkersville, Md.).
Recombinant human IGF-1R (Histidine tagged version) or IGF-1R-Fc was coated onto IMMULON2 HB (high binding) Removawell strips (Dynex Technologies, Inc., cat. #6302) diluted with carbonate coating buffer pH 9.5 to a concentration of 250 ng/well. After overnight incubation at 4° C., the wells were washed three times with washing buffer (0.05% Tween 20/PBS) then blocked with blocking buffer (3% BSA/PBS) for one hour at room temperature. The blocking buffer was removed and the wells washed three more times. Antibody, Fab, or ligand preparations were diluted to desired concentration with dilution buffer (1% BSA/0.05% Tween 20/PBS) and plated at 50 μl per well in duplicate. After 45 minutes at room temperature, 100,000 cpm of either [125I] rhIGF-1 or [125I] rhIGF-2 in 50 μl dilution buffer was added per well. This was incubated at room temperature for one more hour. The wells were washed again three more times and left liquid free after the last wash. The air-dried wells were counted with the Isodata Gamma Counter.
Alternatively, Fabs were evaluated by a modified capture assay, where the IGF-1R-Fc was captured using anti-human IgG immobilized to a plate. Immobilization was carried out by overnight incubation of goat anti-human IgG, Fcγ fragment specific antibody (200 ng/well) in carbonate coating buffer. The wells were washed, blocked and 250 ng of IGF-1R-Fc was added per well.
The ligand blocking ability of the anti-IGF-1R antibody was determined by a solid phase RIA capture method as described in Example 3. […] After 1 hour of incubation at room temperature, the wells were washed and counted for bound radioactivity by a Gamma Counter. An isotype matched negative antibody control, IDEC-151 (human G4), was used. Percent (%) inhibition was calculated as =[1−(Ave.CPM with Ab)/(Ave.CPM with buffer)]×100%.

[1] = target: T3, recombinant human IGF-1R-10His (Homo sapiens, UniProt P08069); assay: SPR, antibodies and Fabs on IGF-1R-His captured via PENTA-His antibody; assay type: binding; conditions: Fab fragment; 25° C.
T3 construct: denoted hIGF-1R(1-902)-His10, was purchased from R&D systems (Cat. No. 305-GR-050); purchased R&D Systems 305-GR-050
Method: Method: The binding activity of M13-C06, M14-C03, and […] to soluble IGF-1R was measured using surface plasmon resonance. Biotinylated PENTA-His Antibody (Qiagen, Inc.) was immobilized onto a Streptavidin coated Sensor Chip. Soluble/Dimeric IGF-1R-His ectodomain (R&D systems, Inc.) was captured on the surface via the PENTA-His antibody. Secondary injections of M13-C06, M14-C03, or M14-G11 Fabs (0.5 nM-100nM) were performed. The surfaces were regenerated with three short injections of acetate, pH 4.0.
M13-C06, M14-C03, and M14-G11 Fab antibodies were prepared by digestion with immobilized papain (Pierce Cat. No. 20341 (Pierce Biotechnology, Inc., Rockford, Ill.)). The papain resin was washed with 20 mM sodium phosphate pH 7.0; 10 mM EDTA; 20 mM Cysteine. Antibodies were mixed with the papain resin in 500 mM EDTA, 100 mM Cysteine pH 7.0 and digested for three hours in a 37° C. water bath followed by mixing on an inverting shaker overnight at room temperature. Completion of each digestion was determined by analytical size exclusion chromatography (SEC). The resin was removed from the digested protein with a sintered glass funnel filter and washed with 20 mM acetate pH 5.0. The flowthrough was collected and diluted 10-fold with 20 mM acetate pH 5.0. Fab fragments were purified by S-SEPHAROSE™ cation exchange chromatography using a linear salt gradient. […]

| Molecule | Proliferation of Tumor Cells Calu-6 (Calu-6) | Proliferation of Tumor Cells Colo-205 (Colo-205) | Proliferation of Tumor Cells H-23 (NCI-H23) | Proliferation of Tumor Cells Panc-1 (Panc-1) | Inhibition of IGF-1R.pTyr IGF-1 (IGF-1R phosphorylation) | Inhibition of IGF-1R.pTyr IGF-2 (IGF-1R phosphorylation) | Proliferation of Tumor Cells MCF-7* (Ki67 Inhibit.) (MCF-7) | IGF Blocking IGF-1 (IGF-1R) | ka [1] [M⁻¹ s⁻¹] | kd [1] [s⁻¹] |
| --- | --- | --- | --- | --- | --- | --- | --- | --- | --- | --- |
| B1 | ++ (>30%@1 μg/ml) | ++ (>30%@1 μg/ml) | +++ (>30%@0.1 μg/ml) | + (>30%@10 μg/ml) | +++ (>30%@0.1 μg/ml) | +++ (>30%@0.1 μg/ml) | +++ (>50%@0.1 μg/ml) | +++ (>40%@0.1 μg/ml) |  |  |
| B2 |  |  |  |  |  |  |  |  | 190000 | 0.00094 |
